B1: library; numbered along this chain (parent)
chain: MAAAAAAAAEQQSSNGPVKKSMREKAVERRSVNKEHNSNFKAGYIPIDEDRLHKTGLRGRKGNLAICVIILLFILAVINLIITLVIWAVIRIGPNGCDSMEFHESGLLRFKQVSDMGVIHPLYKSTVGGRRNENLVITGNNQPIVFQQGTTKLSVENNKTSITSDIGMQFFDPRTQNILFSTDYETHEFHLPSGVKSLNVQKASTERITSNATSDLNIKVDGRAIVRGNEGVFIMGKTIEFHMGGNMELKAENSIILNGSVMVSTTRLPSSSSGDQLGSGDWVRYKLCMCADGTLFKVQVTSQNMGCQISDNPCGNTH

Variants of: B1
Experiment: SGCB cell-surface expression functional score (HA stain, bin4 vs bin1, normalised to synonymous) (log10 ratio); higher = more cell-surface SGCB (functional)
In short: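 Sorting and sequencing yield the functional score, defined as the log ratio of a variant's highest-bin frequency to its lowest-bin frequency, with the median taken over codons and replicate transductions. The libraries, codon-saturation sets of HA-tagged, YFP-fused human beta-sarcoglycan, went into HEK293 cells stably carrying alpha-, gamma- and delta-sarcoglycan by duplicate lentiviral transduction at MOI <0.1. Cells were stained on ice with Alexa Fluor 647 anti-HA, fixed and split into four 5% intensity bins, and synonymous variants were scaled per section to mean 0, SD 0.5.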

| Variant | SGCB cell-surface expression functional score (log10) |
| --- | --- |
| MAAAAAAAAEQQSSNGPVKKSMREKAVERRSVNKEHNSNFKAGYIPIDEDRLHKTGLRGRKGNLAICVIILLFILAVINLIITLVIWAVIRIGPNGCDSMEFHESGLLRFKQVSDMGVIHPLYKSTVGGRRNENLVITGNNQPIVFQQGTTKLSVENNKTSITSDIGMQFFDPRTQNILFSTDYETHEFHLPSGVKSLNVQKASTERITSNATSDLNIKVDVRAIVRGNEGVFIMGKTIEFHMGGNMELKAENSIILNGSVMVSTTRLPSSSSGDQLGSGDWVRYKLCMCADGTLFKVQVTSQNMGCQISDNPCGNTH [G222V] | -0.07 |
| MAAAAAAAAEQQSSNGPVKKSMREKAVERRSVNKEHNSNFKAGYIPIDEDRLHKTGLRGRKGNLAICVIILLFILAVINLIITLVIWAVIRIGPNGCDSMEFHESGLLRFKQVSDMGVIHPLYKSTVGGRRNENLVITGNNQPIVFQQGTTKLSVENNKTSITSDIGMQFFDPRTQNILFSTDYETHEFHLPSGVKSLNVQKASTERITSNATSDLNIKVDLRAIVRGNEGVFIMGKTIEFHMGGNMELKAENSIILNGSVMVSTTRLPSSSSGDQLGSGDWVRYKLCMCADGTLFKVQVTSQNMGCQISDNPCGNTH [G222L] | 0.26 |
| MAAAAAAAAEQQSSNGPVKKSMREKAVERRSVNKEHNSNFKAGYIPIDEDRLHKTGLRGRKGNLAICVIILLFILAVINLIITLVIWAVIRIGPNGCDSMEFHESGLLRFKQVSDMGVIHPLYKSTVGGRRNENLVITGNNQPIVFQQGTTKLSVENNKTSITSDIGMQFFDPRTQNILFSTDYETHEFHLPSGVKSLNVQKASTERITSNATSDLNIKVDMRAIVRGNEGVFIMGKTIEFHMGGNMELKAENSIILNGSVMVSTTRLPSSSSGDQLGSGDWVRYKLCMCADGTLFKVQVTSQNMGCQISDNPCGNTH [G222M] | 0.55 |
| MAAAAAAAAEQQSSNGPVKKSMREKAVERRSVNKEHNSNFKAGYIPIDEDRLHKTGLRGRKGNLAICVIILLFILAVINLIITLVIWAVIRIGPNGCDSMEFHESGLLRFKQVSDMGVIHPLYKSTVGGRRNENLVITGNNQPIVFQQGTTKLSVENNKTSITSDIGMQFFDPRTQNILFSTDYETHEFHLPSGVKSLNVQKASTERITSNATSDLNIKVDNRAIVRGNEGVFIMGKTIEFHMGGNMELKAENSIILNGSVMVSTTRLPSSSSGDQLGSGDWVRYKLCMCADGTLFKVQVTSQNMGCQISDNPCGNTH [G222N] | 1.22 |
| MAAAAAAAAEQQSSNGPVKKSMREKAVERRSVNKEHNSNFKAGYIPIDEDRLHKTGLRGRKGNLAICVIILLFILAVINLIITLVIWAVIRIGPNGCDSMEFHESGLLRFKQVSDMGVIHPLYKSTVGGRRNENLVITGNNQPIVFQQGTTKLSVENNKTSITSDIGMQFFDPRTQNILFSTDYETHEFHLPSGVKSLNVQKASTERITSNATSDLNIKVDDRAIVRGNEGVFIMGKTIEFHMGGNMELKAENSIILNGSVMVSTTRLPSSSSGDQLGSGDWVRYKLCMCADGTLFKVQVTSQNMGCQISDNPCGNTH [G222D] | -0.04 |
| MAAAAAAAAEQQSSNGPVKKSMREKAVERRSVNKEHNSNFKAGYIPIDEDRLHKTGLRGRKGNLAICVIILLFILAVINLIITLVIWAVIRIGPNGCDSMEFHESGLLRFKQVSDMGVIHPLYKSTVGGRRNENLVITGNNQPIVFQQGTTKLSVENNKTSITSDIGMQFFDPRTQNILFSTDYETHEFHLPSGVKSLNVQKASTERITSNATSDLNIKVDQRAIVRGNEGVFIMGKTIEFHMGGNMELKAENSIILNGSVMVSTTRLPSSSSGDQLGSGDWVRYKLCMCADGTLFKVQVTSQNMGCQISDNPCGNTH [G222Q] | 0.85 |
| MAAAAAAAAEQQSSNGPVKKSMREKAVERRSVNKEHNSNFKAGYIPIDEDRLHKTGLRGRKGNLAICVIILLFILAVINLIITLVIWAVIRIGPNGCDSMEFHESGLLRFKQVSDMGVIHPLYKSTVGGRRNENLVITGNNQPIVFQQGTTKLSVENNKTSITSDIGMQFFDPRTQNILFSTDYETHEFHLPSGVKSLNVQKASTERITSNATSDLNIKVDYRAIVRGNEGVFIMGKTIEFHMGGNMELKAENSIILNGSVMVSTTRLPSSSSGDQLGSGDWVRYKLCMCADGTLFKVQVTSQNMGCQISDNPCGNTH [G222Y] | 0.21 |
| MAAAAAAAAEQQSSNGPVKKSMREKAVERRSVNKEHNSNFKAGYIPIDEDRLHKTGLRGRKGNLAICVIILLFILAVINLIITLVIWAVIRIGPNGCDSMEFHESGLLRFKQVSDMGVIHPLYKSTVGGRRNENLVITGNNQPIVFQQGTTKLSVENNKTSITSDIGMQFFDPRTQNILFSTDYETHEFHLPSGVKSLNVQKASTERITSNATSDLNIKVDFRAIVRGNEGVFIMGKTIEFHMGGNMELKAENSIILNGSVMVSTTRLPSSSSGDQLGSGDWVRYKLCMCADGTLFKVQVTSQNMGCQISDNPCGNTH [G222F] | 0.36 |
| MAAAAAAAAEQQSSNGPVKKSMREKAVERRSVNKEHNSNFKAGYIPIDEDRLHKTGLRGRKGNLAICVIILLFILAVINLIITLVIWAVIRIGPNGCDSMEFHESGLLRFKQVSDMGVIHPLYKSTVGGRRNENLVITGNNQPIVFQQGTTKLSVENNKTSITSDIGMQFFDPRTQNILFSTDYETHEFHLPSGVKSLNVQKASTERITSNATSDLNIKVDIRAIVRGNEGVFIMGKTIEFHMGGNMELKAENSIILNGSVMVSTTRLPSSSSGDQLGSGDWVRYKLCMCADGTLFKVQVTSQNMGCQISDNPCGNTH [G222I] | -0.41 |
| MAAAAAAAAEQQSSNGPVKKSMREKAVERRSVNKEHNSNFKAGYIPIDEDRLHKTGLRGRKGNLAICVIILLFILAVINLIITLVIWAVIRIGPNGCDSMEFHESGLLRFKQVSDMGVIHPLYKSTVGGRRNENLVITGNNQPIVFQQGTTKLSVENNKTSITSDIGMQFFDPRTQNILFSTDYETHEFHLPSGVKSLNVQKASTERITSNATSDLNIKVDERAIVRGNEGVFIMGKTIEFHMGGNMELKAENSIILNGSVMVSTTRLPSSSSGDQLGSGDWVRYKLCMCADGTLFKVQVTSQNMGCQISDNPCGNTH [G222E] | 0.65 |

From the supplement of paper PMC10266784
